Experiments:
Assay in all cases: holdup assay
Set-up in all cases: key: below the threshold = too weak to quantify, mostly under pKd 3.1 to 4
Settings in all cases: plain residues with an end cap or a label only (N-terminal biotin on a linker: ahx)
GOPC, Q9HD26 = target: GOPC, Q9HD26
IL16_1, Q14005 = target: IL16_1, Q14005
DLG5_1, Q8TDM6 = target: DLG5_1, Q8TDM6
FRMPD2_2, Q68DX3 = target: FRMPD2_2, Q68DX3
ARHGAP21, Q5T5U3 = target: T1, ARHGAP21, Q5T5U3
T1 sequence (Q5T5U3 45-169, limits assumed, looked up): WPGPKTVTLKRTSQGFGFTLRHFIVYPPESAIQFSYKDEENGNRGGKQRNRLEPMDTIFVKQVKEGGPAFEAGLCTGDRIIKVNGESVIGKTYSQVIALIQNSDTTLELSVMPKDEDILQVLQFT

NHERF4_2, Q86UT5 = target: NHERF4_2, Q86UT5
NHERF4_2, Q86UT5, sequence (Q86UT5 220-308): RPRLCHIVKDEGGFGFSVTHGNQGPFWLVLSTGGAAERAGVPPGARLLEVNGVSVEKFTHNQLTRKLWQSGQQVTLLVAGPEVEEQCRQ

APBA2_1, Q99767 = target: T2, APBA2_1, Q99767
T2 sequence (Q99767 563-664, limits assumed, looked up): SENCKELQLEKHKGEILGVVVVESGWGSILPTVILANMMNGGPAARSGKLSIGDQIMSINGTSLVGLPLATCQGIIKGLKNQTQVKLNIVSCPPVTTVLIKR

LNX1_1, Q8TBB1 = target: LNX1_1, Q8TBB1
LNX1_1, Q8TBB1, sequence (Q8TBB1 261-371): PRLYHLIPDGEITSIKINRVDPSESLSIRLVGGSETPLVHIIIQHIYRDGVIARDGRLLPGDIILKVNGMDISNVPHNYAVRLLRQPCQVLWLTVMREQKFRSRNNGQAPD

GRID2IP_1, A4D2P6 = target: GRID2IP_1, A4D2P6
GRID2IP_1, A4D2P6, sequence (A4D2P6 1-87): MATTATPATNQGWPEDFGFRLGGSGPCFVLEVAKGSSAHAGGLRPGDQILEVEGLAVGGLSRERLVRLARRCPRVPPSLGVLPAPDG

SHANK1, Q9Y566 = target: T3, SHANK1, Q9Y566
T3 sequence (Q9Y566 658-767, limits assumed, looked up): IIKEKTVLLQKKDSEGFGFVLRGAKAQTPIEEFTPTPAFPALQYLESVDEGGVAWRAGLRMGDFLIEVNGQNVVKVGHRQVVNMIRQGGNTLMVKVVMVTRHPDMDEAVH

MPDZ_10, O75970 = target: T4, MPDZ_10, O75970
T4 sequence (O75970 1624-1722, limits assumed, looked up): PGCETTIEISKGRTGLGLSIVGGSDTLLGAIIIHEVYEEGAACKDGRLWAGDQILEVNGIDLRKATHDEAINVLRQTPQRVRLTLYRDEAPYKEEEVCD

PARD3B_1, Q8TEW8 = target: T5, PARD3B_1, Q8TEW8
T5 sequence (Q8TEW8 196-299, limits assumed, looked up): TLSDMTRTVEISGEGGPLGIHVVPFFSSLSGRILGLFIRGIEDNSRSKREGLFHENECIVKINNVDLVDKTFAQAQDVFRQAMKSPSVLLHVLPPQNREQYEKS

DLG1_3, Q12959 = target: DLG1_3, Q12959
DLG1_3, Q12959, sequence (Q12959 457-571): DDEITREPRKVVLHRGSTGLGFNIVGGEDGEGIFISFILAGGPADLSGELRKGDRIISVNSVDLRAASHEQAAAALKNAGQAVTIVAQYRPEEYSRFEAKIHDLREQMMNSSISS

GRASP, Q7Z6J2 = target: GRASP, Q7Z6J2
GRASP, Q7Z6J2, sequence (Q7Z6J2 96-193): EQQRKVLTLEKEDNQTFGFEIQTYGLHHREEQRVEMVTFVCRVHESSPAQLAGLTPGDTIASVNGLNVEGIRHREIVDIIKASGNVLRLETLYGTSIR

AHNAK1, Q09666 = target: AHNAK1, Q09666
AHNAK1, Q09666, sequence (Q09666 4-100): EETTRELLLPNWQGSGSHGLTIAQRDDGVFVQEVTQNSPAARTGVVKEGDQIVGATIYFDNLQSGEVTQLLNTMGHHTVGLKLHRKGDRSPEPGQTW

MAGI3_2, Q5TCQ9 = target: MAGI3_2, Q5TCQ9
MAGI3_2, Q5TCQ9, sequence (Q5TCQ9 398-503): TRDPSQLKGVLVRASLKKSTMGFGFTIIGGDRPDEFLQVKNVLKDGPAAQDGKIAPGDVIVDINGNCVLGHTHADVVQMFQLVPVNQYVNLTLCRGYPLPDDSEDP

APBA1_1, Q02410 = target: T6, APBA1_1, Q02410
T6 sequence (Q02410 651-752, limits assumed, looked up): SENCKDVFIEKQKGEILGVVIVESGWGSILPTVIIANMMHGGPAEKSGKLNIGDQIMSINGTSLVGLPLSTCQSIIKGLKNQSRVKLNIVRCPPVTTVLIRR

RAPGEF6, Q8TEU7 = target: T7, RAPGEF6, Q8TEU7
T7 sequence (Q8TEU7 525-625, limits assumed, looked up): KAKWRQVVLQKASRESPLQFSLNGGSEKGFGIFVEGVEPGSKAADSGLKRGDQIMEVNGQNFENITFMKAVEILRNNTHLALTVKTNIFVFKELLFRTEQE

MPDZ_12, O75970 = target: T8, MPDZ_12, O75970
T8 sequence (O75970 1857-1958, limits assumed, looked up): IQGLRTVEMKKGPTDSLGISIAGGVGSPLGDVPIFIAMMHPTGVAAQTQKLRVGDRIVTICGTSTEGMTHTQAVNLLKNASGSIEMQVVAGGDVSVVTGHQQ

LAP2, Q96RT1 = target: LAP2, Q96RT1
LAP2, Q96RT1, sequence (Q96RT1 other isoform, or with tags, fused parts or gaps): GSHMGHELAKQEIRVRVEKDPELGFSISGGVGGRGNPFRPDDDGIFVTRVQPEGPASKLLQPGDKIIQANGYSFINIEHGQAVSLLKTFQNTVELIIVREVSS

Inadl_9, Q8NI35 = target: Inadl_9, Q8NI35
Inadl_9, Q8NI35, sequence (Q8NI35 1530-1615): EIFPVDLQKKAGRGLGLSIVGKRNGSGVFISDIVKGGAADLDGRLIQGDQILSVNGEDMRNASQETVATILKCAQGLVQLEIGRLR

RADIL, Q96JH8 = target: T9, RADIL, Q96JH8
T9 sequence (Q96JH8 971-1071, limits assumed, looked up): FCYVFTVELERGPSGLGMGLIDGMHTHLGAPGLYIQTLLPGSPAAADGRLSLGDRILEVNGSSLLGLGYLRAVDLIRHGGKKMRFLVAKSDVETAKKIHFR

MAGI2_4, Q86UL8 = target: MAGI2_4, Q86UL8
MAGI2_4, Q86UL8, sequence (Q86UL8 772-865): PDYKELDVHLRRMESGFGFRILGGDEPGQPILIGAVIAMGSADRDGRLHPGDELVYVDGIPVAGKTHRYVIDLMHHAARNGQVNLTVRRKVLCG

NHERF4_1, Q86UT5-2 = target: NHERF4_1, Q86UT5-2
NHERF4_1, Q86UT5-2, sequence (Q86UT5 other isoform, or with tags, fused parts or gaps): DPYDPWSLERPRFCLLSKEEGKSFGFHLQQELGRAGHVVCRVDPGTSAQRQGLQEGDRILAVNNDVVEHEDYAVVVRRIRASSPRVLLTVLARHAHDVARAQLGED

SCRIB_1, Q14160 = target: SCRIB_1, Q14160
SCRIB_1, Q14160, sequence (Q14160 718-814): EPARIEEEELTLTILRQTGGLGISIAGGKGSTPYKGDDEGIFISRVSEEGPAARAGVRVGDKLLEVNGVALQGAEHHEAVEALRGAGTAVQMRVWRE

MPDZ_5, O75970 = target: T10, MPDZ_5, O75970
T10 sequence (O75970 695-796, limits assumed, looked up): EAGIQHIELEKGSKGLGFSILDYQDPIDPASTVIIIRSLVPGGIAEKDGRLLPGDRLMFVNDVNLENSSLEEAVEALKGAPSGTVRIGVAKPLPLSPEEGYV

IL16_1, Q14005, sequence (Q14005 210-306): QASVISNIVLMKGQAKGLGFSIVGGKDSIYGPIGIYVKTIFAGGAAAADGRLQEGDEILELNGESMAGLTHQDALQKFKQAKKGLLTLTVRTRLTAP
DLG5_1, Q8TDM6, sequence (Q8TDM6 617-713): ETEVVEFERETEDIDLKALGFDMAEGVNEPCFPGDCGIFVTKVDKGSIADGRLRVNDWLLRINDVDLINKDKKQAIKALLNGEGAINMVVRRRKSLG
FRMPD2_2, Q68DX3, sequence (Q68DX3 944-1038): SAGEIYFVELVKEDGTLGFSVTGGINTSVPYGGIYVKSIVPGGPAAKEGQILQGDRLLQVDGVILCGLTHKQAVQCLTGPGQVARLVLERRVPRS

B1: PDZRN4, Q6ZMN7 (peptide)
chain: HNAFLSVTTV
For B1, the pKd (GOPC, Q9HD26) was 3.6, the pKd (IL16_1, Q14005) was “below the threshold” and the pKd (DLG5_1, Q8TDM6) was “below the threshold”. For the same binder, the pKd (FRMPD2_2, Q68DX3) was “below the threshold”, the pKd (ARHGAP21, Q5T5U3) was 3.5 and the pKd (NHERF4_2, Q86UT5) was “below the threshold”. The pKd (APBA2_1, Q99767) was 3.69, the pKd (LNX1_1, Q8TBB1) was “below the threshold” and the pKd (GRID2IP_1, A4D2P6) was “below the threshold”. For the same binder, the pKd (SHANK1, Q9Y566) was “below the threshold”, the pKd (MPDZ_10, O75970) was 3.75 and the pKd (PARD3B_1, Q8TEW8) was 3.55. For the same binder, the pKd (DLG1_3, Q12959) was “below the threshold”, the pKd (GRASP, Q7Z6J2) was 3.57 and the pKd (AHNAK1, Q09666) was 3.7. The pKd (MAGI3_2, Q5TCQ9) was 3.58, the pKd (APBA1_1, Q02410) was 3.49 and the pKd (RAPGEF6, Q8TEU7) was “below the threshold”. The pKd (MPDZ_12, O75970) was “below the threshold”, the pKd (LAP2, Q96RT1) was “below the threshold” and the pKd (Inadl_9, Q8NI35) was “below the threshold”. The pKd (RADIL, Q96JH8) was 3.61, the pKd (MAGI2_4, Q86UL8) was 3.49 and the pKd (NHERF4_1, Q86UT5-2) was 3.69. The pKd (SCRIB_1, Q14160) was “below the threshold” and the pKd (MPDZ_5, O75970) was 3.49.

B2: NHERF2, Q15599 (peptide)
chain: NRKREIFSNF
With B2 the pKd (GOPC, Q9HD26) was “below the threshold”, the pKd (IL16_1, Q14005) was “below the threshold” and the pKd (DLG5_1, Q8TDM6) was “below the threshold”. The pKd (FRMPD2_2, Q68DX3) was “below the threshold”, the pKd (ARHGAP21, Q5T5U3) was “below the threshold” and the pKd (NHERF4_2, Q86UT5) was “below the threshold”. The pKd (APBA2_1, Q99767) was “below the threshold”, the pKd (LNX1_1, Q8TBB1) was “below the threshold” and the pKd (GRID2IP_1, A4D2P6) was “below the threshold”. For the same binder, the pKd (SHANK1, Q9Y566) was “below the threshold”, the pKd (MPDZ_10, O75970) was “below the threshold” and the pKd (PARD3B_1, Q8TEW8) was “below the threshold”. For the same binder, the pKd (DLG1_3, Q12959) was “below the threshold”, the pKd (GRASP, Q7Z6J2) was “below the threshold” and the pKd (AHNAK1, Q09666) was “below the threshold”. For the same binder, the pKd (MAGI3_2, Q5TCQ9) was “below the threshold”, the pKd (APBA1_1, Q02410) was “below the threshold” and the pKd (RAPGEF6, Q8TEU7) was “below the threshold”. For the same binder, the pKd (MPDZ_12, O75970) was “below the threshold”, the pKd (LAP2, Q96RT1) was “below the threshold” and the pKd (Inadl_9, Q8NI35) was “below the threshold”. The pKd (RADIL, Q96JH8) was “below the threshold”, the pKd (MAGI2_4, Q86UL8) was “below the threshold” and the pKd (NHERF4_1, Q86UT5-2) was “below the threshold”. The pKd (SCRIB_1, Q14160) was “below the threshold” and the pKd (MPDZ_5, O75970) was “below the threshold”.
